Consider five molecules from patent US20180021429A1, “ANTICANCER AGENTS OR ANTIMETASTATIC AGENTS USING FSTL1 AND COMBINATION DRUG THEREOF” (PHARMA FOODS INTERNATIONAL CO., LTD., priority 2015, published 2018).

For one assay, the target named is T1, FSTL1 (Homo sapiens, UniProt Q12841).
T1 sequence (Q12841 21-308): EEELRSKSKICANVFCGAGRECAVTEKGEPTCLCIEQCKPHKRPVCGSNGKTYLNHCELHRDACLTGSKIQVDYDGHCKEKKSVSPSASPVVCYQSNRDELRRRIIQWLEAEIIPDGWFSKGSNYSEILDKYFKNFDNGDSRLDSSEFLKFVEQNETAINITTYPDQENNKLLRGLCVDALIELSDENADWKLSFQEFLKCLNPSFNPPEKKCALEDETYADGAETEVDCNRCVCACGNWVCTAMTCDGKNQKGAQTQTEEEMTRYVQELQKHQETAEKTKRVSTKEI
Put plainly: Biacore T-200 affinity of mouse chimeric antibodies for human FSTL1 (Example 33). The assay is classed as binding. As to the method:
The mouse chimeric antibodies were immobilized onto Sensor Chip CM5 (GE Healthcare Japan Corp., BR-1005-30) using Mouse Antibody Capture Kit (GE Healthcare Japan Corp., BR-1008-38), and their affinity for human FSTL1 was calculated using Biacore T-200 (GE Healthcare Japan Corp.).
First, the exhaustive activity comparison of the obtained antibodies was conducted with the human FSTL1 concentration fixed to 10 μg/ml (Table 33-1, FIG. 122).
Next, the KD values of clone #6-55, #7-34, and #13 presumed to have high affinity in FIG. 122 were calculated with the antigen concentration adjusted to 0 to 20 μg/ml (Table 35-2).
For orientation: In SPR one partner is held on a chip, and binding of the other changes the refractive index at the surface.

Assay [1] has as its system GFP+F10-snail+ tumor cells. Put plainly: In vivo drug efficacy of each anti-FSTL1 antibody clone, Snail+ tumor bone metastasis model (Example 32). Further details: species or system mouse. The settings on record: intraperitoneal 10 mg/kg on days 4 and 7; for mouse survival period (life-prolonging effect): FIG. 27; for suppressive activity against subcutaneous tumor growth: FIG. 26, vs control antibody. As to the method: • Day 0: transplantation of GFP+F10-snail+ tumor cells (3×10^5 cells subcutaneously & 2×10^4 cells intravenously) • Day 4: intraperitoneal administration of the antibody (first dose, 10 mg/kg) • Day 7: intraperitoneal administration of the antibody (second dose, 10 mg/kg)
Subcutaneous tumor was measured 4, 7, 10, 14, 17, 20, and 23 days after tumor cell transplantation.

In assay [2] the test system is GFP-positive and Snail-positive B16-F10 tumor cells. Put plainly: Snail-positive B16-F10 bone metastasis model, intratumoral administration (Example 17). In kind it is in vivo, mouse. The settings on record: intratumoral 10 mg/kg on day 7, assay day 14; FIG. 105A. From the text: Three antibodies were comparatively analyzed for their antitumor effects and an immunosuppression-mitigating effect using bone metastasis models in which mouse melanoma cells B16-F10 forced to express Snail were subcutaneously and intravenously transplanted in C57BL/6N mice.
1. Experiment Group (n=5) • 1. No treatment • 2. Control IgG (anti-DNP) • 3. Anti-FSTL1 Clone #6-55 • 4. Anti-FSTL1 Clone #7-34 • 5. Anti-FSTL1 Clone #8-1
• Day 0: transplantation of GFP-positive and Snail-positive B16-F10 tumor cells (5×10^5 cells subcutaneously & 1×10^5 cells intravenously) • Day 7: intratumoral administration of the antibody (200 μg/0.1 mL/tumor) • Day 14: various assays (with a focus on flow cytometry analysis)
• Effects on the growth of subcutaneous tumor (calculation of tumor volume by tumor size measurement): measured 7, 11, and 14 days after tumor implantation (FIG. 105C) • Effects on bone metastasis (GFP-positive tumor cells in bone marrow) (FIG. 105A) • Effects on the expansion of mesenchymal stem cells (CD45− negative cells in bone marrow and in the spleen) (FIGS. 105B and 105D) • Effects on the expansion of immunosuppressive Treg cells (CD4-positive and Foxp3-positive cells in bone marrow or the spleen) (FIG. 105D) • Other immunosuppressive properties (FIG. 105D)
In order to evaluate in vivo antibody activity, antitumor effects and immunosuppression-mitigating effects were comparatively analyzed using bone metastasis models in which mouse melanoma cells (B16-F10) forced to express Snail were subcutaneously and intravenously transplanted in C57BL/6N mice. […]
It is known that when Snail-positive tumor cells are subcutaneously or intravenously transplanted to mice, the tumor metastasizes preferentially to bone marrow in addition to various organs, and this incurs the expansion of mesenchymal stem cells (MSCs) originating in the bone marrow, thereby systemically and strongly suppressing the induction of antitumor immunity (Cancer Research 73: 6185, 2013). […] The percentage (%) of CD45^− cells in the bone marrow cells was analyzed by flow cytometry.

Substitutions are numbered along the chain they refer to.

B1: #33: chicken-mouse chimeric anti-FSTL1 antibody clone; variable regions SEQ ID NO: 823 (light), 825 (heavy) (antibody, V domains shown)
VH: AVTLDESGGGLQTPGGGLSLVCKASGFTFSSFNMNWVRQAPGKGLEYVAEISGTGSSTYYGSAVKGRATISRDNGQSTVRLQLNNLRAEDTATYFCARGDGAYSIDAWGHGTEVIVSS
VL: ASTQPSSVSANPGETVEITCSGDSSYYGWFQQKSPGSAPVTVIYDNTNRPSDIPSRFSGSKSGSTATLTITGVRAEDEAVYYCGGYDSSTYDGIFGAGTTLTVL
modifications: mouse constant regions
As to B1, the “affinity in an assay system using surface plasmon resonance” value (from here on “affinity in an assay system”) in the assay with FSTL1 is listed as “strong affinity”. Moreover, the “mouse survival period (life-prolonging effect)” value in assay [1] is recorded as “therapeutic effects equal to or higher than those of #6-55”.

B2: #13: chicken-mouse chimeric anti-FSTL1 antibody clone; variable regions SEQ ID NO: 815 (light), 817 (heavy) (antibody, V domains shown)
VH: AVTLDESGGGLQTPGGGLSLVCKASGFTFSSVTMQWVRQAPGKGLEWVASICSGSSTYYGPAVKGRATISRDNGQNTVRLQLNNLRAEDTATYYCAKIVGRGRWSCTSAAYNIDAWGHGTEVIVSS
VL: ASTQPSSVSANPGETVKITCSGGGNNYGWYQQKSPGSAPVTVIYNNNNRPSNIPSRFSGSKSGSTNTLTITGVQAEDEAVYYCGSYDSSSDSGIFGAGTTLTVL
modifications: mouse constant regions
As for B2, the “affinity in an assay system” value in the assay with FSTL1 is given as “strong affinity”. Also, the “suppressive activity against subcutaneous tumor growth” value in assay [1] is “all of the clones except for #13 exhibited statistically significant suppressive activity”.

B3: #6-55: chicken-mouse chimeric anti-FSTL1 antibody clone; variable regions SEQ ID NO: 783 (light), 785 (heavy) (antibody, V domains shown)
VH: AVTLDESGGGLQTPGGALSLVCKGSGFTFTSVTMQWVRQAPGKGLEWVASVCSGSSTYYAPAVKGRATISRDNGQSTVRLQLSNLRPEDTGTYYCAKIAGRARWSCTSAAYNIDAWGHGTEVIVSS
VL: ASTQPSSVSAIPGETVKITCSGGGNNYGWYQQRSPGSAPVTVIYYNDNRPSNIPSRFSGSTSGSTSTLTITGVQADDEAIYYCGSWDSNTDSGIFGAGTTLTVL
modifications: mouse constant regions
With B3, the “bone metastasis (GFP-positive tumor cells in bone marrow)” value (“bone metastasis” below) in assay [2] is given as “suppressed”. Moreover, the “affinity in an assay system” value with FSTL1 was “strong affinity”. Moreover, in assay [1], the “suppressive activity against subcutaneous tumor growth” value is listed as “statistically significant suppressive activity” and the “mouse survival period (life-prolonging effect)” value is reported as “statistically significant life-prolonging effect”.

B4: #7-34: chicken-mouse chimeric anti-FSTL1 antibody clone; variable regions SEQ ID NO: 787 (light), 789 (heavy) (antibody, V domains shown)
VH: B2 VH
VL: B2 VL with N45Y, K61T, N66S, D87E, S88G, S90T
modifications: mouse constant regions
For B4, in assay [2], the “bone metastasis” value was “no suppressive effect”.

B5: #8-1: chicken-mouse chimeric anti-FSTL1 antibody clone; variable regions SEQ ID NO: 791 (light), 793 (heavy) (antibody, V domains shown)
VH: AVTLDESGGGLQTPGGALSLVCKGSGFTFSSFNMFWVRQAPGKGLEWVAGIGKDGVPKYGAAVDGRATISKDNGQSTMRLQLNNLRAEDTGTYFCAKAAGGCSYDWCGIYAGDIDTWGHGTEVIVSS
VL: ASTQPSSVSANPGEAVKITCSGGSGSYYGWYQQKSPGSAPVTVIYNNNQRPSDIPSRFSGSKSGSTATLTITGVQAEDEAVYFCGGYDSSSGHGGIFGAGTTLTVL
modifications: mouse constant regions
Take B5: the “bone metastasis” value in assay [2] is “suppressed”.
